Results as given in US20110059889A1 (SYNTONIX PHARMACEUTICALS, published 2011).
Like-named read-outs stand apart in the source and are kept apart here. Values belong to the binder of their own block, whether it stands above or below them. Bridge positions count the residues as written; N and C are the ends. Square brackets hold non-standard residues; d marks the D form. Ends that are not written are not given here. NMeY = CN[C@@H](Cc1ccc(O)cc1)C(=O)O; NMeL = CN[C@@H](CC(C)C)C(=O)O; Pen = CC(C)(S)[C@H](N)C(=O)O; NMeA = CN[C@@H](C)C(=O)O; Sar = CNCC(=O)O

What was measured:
[1] = biological target: T1, soluble human FcRn (shFcRn) (human, UniProt P55899 24-297; P61769 21-119); test: SPR pH 7.4
T1 construct: Biotinylated for the ELISA, amine-coupled to a CM5 chip for SPR; also called biotinylated shFcRn
Method: (§1) The following steps were performed to cross-link soluble human or cynomolgus FcRn to the dextran surface of a CM5 sensor chip (Biacore AB, Uppsala, Sweden) by an amine coupling reaction involving 1-ethyl-(3-dimethylaminopropyl)-carbodiimide hydrochloride (EDC) (Biacore AB, Uppsala, Sweden) and N-hydroxysuccinimide (NHS) (Biacore AB, Uppsala, Sweden) as recommended by Biacore (BIAapplications Handbook, version AB, section 4.2, Biacore AB, Uppsala, Sweden). […] Residual sites on the FcRn flow cell were blocked with 1 M ethanolamine hydrochloride pH 8.5 (Biacore AB, Uppsala, Sweden). A control flow cell was blocked with ethanolamine for reference subtraction. For analysis of the monomeric peptides, FcRn was coated to a final density of 4000-5000 response units (RU). For analysis of the peptide dimers, FcRn was coated to a density of 2000-2500 RU. All SPR measurements were performed using a BIACORE 3000 Instrument (Biacore AB Uppsala, Sweden). For measurements done at either pH 6 or pH 7.4, experiments were performed in 50 mM phosphate, 100 mM sodium chloride, 0.01% surfactant P20 (Biacore AB, Uppsala, Sweden).
(§2) Ten, 2-fold dilutions of the peptide were injected over the FcRn-CM5 chip at a rate of 20 μl/min for 2 min. The peptide was dissociated from the chip for 2.5 minutes with buffer. […] Sensorgrams were generated and analyzed using BiaEval software version 3.1 (Biacore AB, Uppsala, Sweden). […]

[2] = biological target: T1, soluble human FcRn (shFcRn); test: IgG competition ELISA
Method: (§3) The wells were coated with 100 μl/well of 1 μg/ml biotinylated-shFcRn in Buffer A. The plate was sealed and incubated at 37° C. for 2 hours. Afterwards, the plate was washed with 200 μl/well of Buffer B (Buffer B: 100 mM MES pH 6, 150 mM NaCl, 0.5% BSA IgG-free (Jackson ImmunoResearch, West Grove, Pa.), 0.05% Tween-20). […] To allow for mixing, the plate was rocked for 2 minutes, sealed and incubated at 37° C. for 2 hours. […] The plate was covered, incubated for 30 minutes at room temperature and washed 4 times with 200 μl/well of ice-cold buffer B. SureBlue TMB substrate solution (100 μl/well, KPL, Gaithersburg, Md.) was added and the plate was allowed to incubate at room temperature until color developed, which took 5 to 10 minutes. Once color developed, 100 μl/well of TMB stop solution (KPL, Gaithersburg, Md.) was added and the absorbance was measured at 450 nm. The data was plotted as absorbance vs. peptide concentration to derive the inhibitory concentration 50% (IC₅₀) values.

[3] = biological target: T1, soluble human FcRn (shFcRn); test: SPR pH 6
Method: as §1
(§4) Ten, 2-fold dilutions of the peptide were injected over the FcRn-CM5 chip at a rate of 20 μl/min for 2 min. The peptide was dissociated from the chip for 2.5 minutes with buffer. Any remaining peptide was removed from the chip with a 30 second injection of HBS-P buffer (Biacore AB, Uppsala, Sweden) at a rate of 30 μl/min. Sensorgrams were generated and analyzed using BiaEval software version 3.1 (Biacore AB, Uppsala, Sweden). The equilibrium RU observed for each injection was plotted against concentration. The equilibrium KD values were derived by analysis of the plots using the steady state affinity model included in the BiaEval software.

[4] = biological target: T1, soluble human FcRn (shFcRn); test: SPR pH 7.4; Peptide No. 146: Pen for Cys and NMeLeu for Leu (RF-Pen-TGHFGG-NMeLeu-YPCNGP)
Method: as §1, §2

[5] = biological target: T1, soluble human FcRn (shFcRn); test: SPR pH 6; Peptide No. 114: Pen, NMeTyr (QRF-Pen-TGHFGGL-NMeTyr-PCNGP)
Method: as §1, §2

[6] = biological target: T1, soluble human FcRn (shFcRn); test: SPR pH 6; remark: listed apart in the source
Method: as §1, §2

[7] = biological target: T1, soluble human FcRn (shFcRn); test: IgG competition ELISA; remark: listed apart in the source
Method: as §3

[8] = biological target: T1, soluble human FcRn (shFcRn); test: IgG competition ELISA; remark: listed apart in the source
Method: as §3

[9] = biological target: T1, soluble human FcRn (shFcRn); test: IgG competition ELISA; remark: listed apart in the source
Method: as §3

[10] = biological target: T1, soluble human FcRn (shFcRn); test: SPR pH 6; Peptide No. 74: Pen, G and lower-case a (QRF-Pen-TGHF-G-a-LYPCNGP)
Method: as §1, §2

[11] = biological target: T1, soluble human FcRn (shFcRn); test: SPR pH 6; remark: listed apart in the source
Method: as §1, §4

[12] = biological target: T1, soluble human FcRn (shFcRn); test: SPR pH 6; Peptide No. 75: Pen, lower-case a-G (QRF-Pen-TGHF-a-G-LYPCNGP)
Method: as §1, §2

[13] = biological target: T1, soluble human FcRn (shFcRn); test: IgG competition ELISA; remark: listed apart in the source
Method: as §3

[14] = biological target: T1, soluble human FcRn (shFcRn); test: IgG competition ELISA; remark: listed apart in the source
Method: as §3

[15] = biological target: T1, soluble human FcRn (shFcRn); test: IgG competition ELISA; remark: listed apart in the source
Method: as §3

[16] = biological target: T1, soluble human FcRn (shFcRn); test: SPR pH 6; Peptide No. 113: Pen, NMeLeu (QRF-Pen-TGHFGG-NMeLeu-YPCNGP)
Method: as §1, §2

[17] = biological target: T1, soluble human FcRn (shFcRn); test: SPR pH 6; remark: listed apart in the source
Method: as §1, §2

B3: Peptide No. 114 (peptide)
peptide: QRF[Pen]TGHFGGL[NMeY]PCNGP-NH2
modifications: disulfide 4-14; N-terminus assumed
SMILES: CC(C)C[C@@H]1NC(=O)CNC(=O)CNC(=O)[C@H](Cc2ccccc2)NC(=O)[C@H](Cc2c[nH]cn2)NC(=O)CNC(=O)[C@H]([C@@H](C)O)NC(=O)[C@@H](NC(=O)[C@H](Cc2ccccc2)NC(=O)[C@H](CCCNC(=N)N)NC(=O)[C@@H](N)CCC(N)=O)C(C)(C)SSC[C@@H](C(=O)N[C@@H](CC(N)=O)C(=O)NCC(=O)N2CCC[C@H]2C(N)=O)NC(=O)[C@@H]2CCCN2C(=O)[C@H](Cc2ccc(O)cc2)N(C)C1=O
Kd [5]: 92 µM

Binder: QRFCTGHFGGLXPCNGP (Pen 4; 3-pyridylAla 12; disulfide 4-14; C-terminal amide) [Peptide No. 67]
Kd [6]: 34 µM | IC50 [7]: 92 µM

B5: Peptide No. 74 (peptide)
peptide: QRF[Pen]TGHFG[dA]LYPCNGP-NH2
modifications: disulfide 4-14; N-terminus assumed
SMILES: CC(C)C[C@@H]1NC(=O)[C@@H](C)NC(=O)CNC(=O)[C@H](Cc2ccccc2)NC(=O)[C@H](Cc2c[nH]cn2)NC(=O)CNC(=O)[C@H]([C@@H](C)O)NC(=O)[C@@H](NC(=O)[C@H](Cc2ccccc2)NC(=O)[C@H](CCCNC(=N)N)NC(=O)[C@@H](N)CCC(N)=O)C(C)(C)SSC[C@@H](C(=O)N[C@@H](CC(N)=O)C(=O)NCC(=O)N2CCC[C@H]2C(N)=O)NC(=O)[C@@H]2CCCN2C(=O)[C@H](Cc2ccc(O)cc2)NC1=O
IC50 [9]: 2 µM | Kd [10]: 0.48 µM

B7: Peptide No. 75 (peptide)
peptide: QRF[Pen]TGHF[dA]GLYPCNGP-NH2
modifications: disulfide 4-14; N-terminus assumed
SMILES: CC(C)C[C@@H]1NC(=O)CNC(=O)[C@@H](C)NC(=O)[C@H](Cc2ccccc2)NC(=O)[C@H](Cc2c[nH]cn2)NC(=O)CNC(=O)[C@H]([C@@H](C)O)NC(=O)[C@@H](NC(=O)[C@H](Cc2ccccc2)NC(=O)[C@H](CCCNC(=N)N)NC(=O)[C@@H](N)CCC(N)=O)C(C)(C)SSC[C@@H](C(=O)N[C@@H](CC(N)=O)C(=O)NCC(=O)N2CCC[C@H]2C(N)=O)NC(=O)[C@@H]2CCCN2C(=O)[C@H](Cc2ccc(O)cc2)NC1=O
Kd [12]: 0.49 µM

B9: Peptide No. 99 (peptide)
peptide: RF[Pen]TGHFGGLYPC-NH2
modifications: disulfide 3-13; N-terminus assumed
SMILES: CC(C)C[C@@H]1NC(=O)CNC(=O)CNC(=O)[C@H](Cc2ccccc2)NC(=O)[C@H](Cc2c[nH]cn2)NC(=O)CNC(=O)[C@H]([C@@H](C)O)NC(=O)[C@@H](NC(=O)[C@H](Cc2ccccc2)NC(=O)[C@@H](N)CCCNC(=N)N)C(C)(C)SSC[C@@H](C(N)=O)NC(=O)[C@@H]2CCCN2C(=O)[C@H](Cc2ccc(O)cc2)NC1=O
IC50 [14]: 2 µM | IC50 [15]: 2 µM

B10: Peptide No. 113 (peptide)
peptide: QRF[Pen]TGHFGG[NMeL]YPCNGP-NH2
modifications: disulfide 4-14; N-terminus assumed
SMILES: CC(C)C[C@H]1C(=O)N[C@@H](Cc2ccc(O)cc2)C(=O)N2CCC[C@H]2C(=O)N[C@H](C(=O)N[C@@H](CC(N)=O)C(=O)NCC(=O)N2CCC[C@H]2C(N)=O)CSSC(C)(C)[C@H](NC(=O)[C@H](Cc2ccccc2)NC(=O)[C@H](CCCNC(=N)N)NC(=O)[C@@H](N)CCC(N)=O)C(=O)N[C@@H]([C@@H](C)O)C(=O)NCC(=O)N[C@@H](Cc2c[nH]cn2)C(=O)N[C@@H](Cc2ccccc2)C(=O)NCC(=O)NCC(=O)N1C
Kd [16]: 0.086 µM | IC50 [2]: 1.6 µM

The remaining lines, values ahead:

Kd [1]: 0.35 µM | IC50 [2]: 1 µM | Kd [3]: 0.058 µM
B1: Peptide No. 147 (peptide)
peptide: RF[Pen]TGHFG[Sar]YPCNGP-NH2
modifications: disulfide 3-12; N-terminus assumed
SMILES: C[C@@H](O)[C@@H]1NC(=O)[C@@H](NC(=O)[C@H](Cc2ccccc2)NC(=O)[C@@H](N)CCCNC(=N)N)C(C)(C)SSC[C@@H](C(=O)N[C@@H](CC(N)=O)C(=O)NCC(=O)N2CCC[C@H]2C(N)=O)NC(=O)[C@@H]2CCCN2C(=O)[C@H](Cc2ccc(O)cc2)NC(=O)CN(C)C(=O)CNC(=O)[C@H](Cc2ccccc2)NC(=O)[C@H](Cc2c[nH]cn2)NC(=O)CNC1=O
notes: copied as printed (RF-Pen-TGHFG-Sar-YPCNGP); a Leu after Sar may be missing in the print

Kd [4]: 0.28 µM | IC50 [2]: 2.1 µM | Kd [3]: 0.059 µM
B2: Peptide No. 146 (peptide)
peptide: RF[Pen]TGHFGG[NMeL]YPCNGP-NH2
modifications: disulfide 3-13; N-terminus assumed
SMILES: CC(C)C[C@H]1C(=O)N[C@@H](Cc2ccc(O)cc2)C(=O)N2CCC[C@H]2C(=O)N[C@H](C(=O)N[C@@H](CC(N)=O)C(=O)NCC(=O)N2CCC[C@H]2C(N)=O)CSSC(C)(C)[C@H](NC(=O)[C@H](Cc2ccccc2)NC(=O)[C@@H](N)CCCNC(=N)N)C(=O)N[C@@H]([C@@H](C)O)C(=O)NCC(=O)N[C@@H](Cc2c[nH]cn2)C(=O)N[C@@H](Cc2ccccc2)C(=O)NCC(=O)NCC(=O)N1C

IC50 [8]: 19 µM
B4: Peptide No. 216 (peptide)
peptide: QRFCTGHFGXYPCNGP
modifications: Pen 4; X 10 = L,L-Friedinger's lactam (dipeptide mimetic in place of Gly-Leu); disulfide 4-13; C-terminal amide

Kd [11]: 0.76 µM
B6: Peptide No. 195 (peptide)
peptide: QRF[Pen]GGHFGGLYPCNGP-NH2
modifications: disulfide 4-14; N-terminus assumed
SMILES: CC(C)C[C@@H]1NC(=O)CNC(=O)CNC(=O)[C@H](Cc2ccccc2)NC(=O)[C@H](Cc2c[nH]cn2)NC(=O)CNC(=O)CNC(=O)[C@@H](NC(=O)[C@H](Cc2ccccc2)NC(=O)[C@H](CCCNC(=N)N)NC(=O)[C@@H](N)CCC(N)=O)C(C)(C)SSC[C@@H](C(=O)N[C@@H](CC(N)=O)C(=O)NCC(=O)N2CCC[C@H]2C(N)=O)NC(=O)[C@@H]2CCCN2C(=O)[C@H](Cc2ccc(O)cc2)NC1=O

IC50 [13]: 5.5 µM | Kd [11]: 1 µM
B8: Peptide No. 213 (peptide)
peptide: QRF[Pen][NMeA]GHFGGLYPCNGP-NH2
modifications: disulfide 4-14; N-terminus assumed
SMILES: CC(C)C[C@@H]1NC(=O)CNC(=O)CNC(=O)[C@H](Cc2ccccc2)NC(=O)[C@H](Cc2c[nH]cn2)NC(=O)CNC(=O)[C@H](C)N(C)C(=O)[C@@H](NC(=O)[C@H](Cc2ccccc2)NC(=O)[C@H](CCCNC(=N)N)NC(=O)[C@@H](N)CCC(N)=O)C(C)(C)SSC[C@@H](C(=O)N[C@@H](CC(N)=O)C(=O)NCC(=O)N2CCC[C@H]2C(N)=O)NC(=O)[C@@H]2CCCN2C(=O)[C@H](Cc2ccc(O)cc2)NC1=O

IC50 [8]: 4.9 µM
B11: Peptide No. 194 (peptide)
peptide: QRFCTGHFGXYPCNGP
modifications: Pen 4; X 10 = D,L-Friedinger's lactam (dipeptide mimetic in place of Gly-Leu); disulfide 4-13; C-terminal amide

Kd [17]: 0.14 µM | IC50 [14]: 1.5 µM
B12: Peptide No. 142 (peptide)
peptide: RF[Pen]TGHFG[dP]LYPC-NH2
modifications: disulfide 3-13; N-terminus assumed
SMILES: CC(C)C[C@@H]1NC(=O)[C@H]2CCCN2C(=O)CNC(=O)[C@H](Cc2ccccc2)NC(=O)[C@H](Cc2c[nH]cn2)NC(=O)CNC(=O)[C@H]([C@@H](C)O)NC(=O)[C@@H](NC(=O)[C@H](Cc2ccccc2)NC(=O)[C@@H](N)CCCNC(=N)N)C(C)(C)SSC[C@@H](C(N)=O)NC(=O)[C@@H]2CCCN2C(=O)[C@H](Cc2ccc(O)cc2)NC1=O
